Source: the supplement of paper PMC10126150
± gives the standard deviation of the averaged measurements.

Tested on: ATP
Assay: switch fluorescence ratio, 500 uM ATP over buffer (Cy3 cluster intensity, sum of 5 cycles each) (fold (ratio)); higher = stronger signal-on switching upon ATP binding; sequences stand for … in TCGTCGGCAGCGTCAGATGTGTATAAGAGACAGTTTTTTTTTTTTTTTTTTTTTTTTT…TC
Conditions: aptamer strand: ATP DNA aptamer (quencher-CACCTGGGGGAGTATTGCGGAGGAAGG + anchor), 100 nM annealed; ATP concentration: 500 uM
How it was run: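 Per cluster, summed Cy3 intensity from the target cycles was divided by that from the buffer cycles to give the fluorescence ratio, then averaged per switch-domain sequence. Clusters outside 100-1000 RFU were excluded. The Cy3-labelled switching-strand clusters, on a modified Illumina MiSeq flow-cell, were annealed to 100 nM quencher-labelled ATP aptamer and imaged in selection buffer, then after 15 min with 500 uM ATP at 22 °C, for five cycles with NaOH stripping and re-annealing between them.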
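Further: ATP exposure 15 min at 22 °C before imaging.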

TTCGACTTTT
switch fluorescence ratio: 0.988 ± 0.051

CGTATTACAC
switch fluorescence ratio: 1.045 ± 0.0033

CGGGTATGCC
switch fluorescence ratio: 0.96 ± 0.0098

AAATAAAGCT
switch fluorescence ratio: 1.07 ± 0.073

TAGATAGGGA
switch fluorescence ratio: 1.01 ± 0.024

ATTGAAAGGC
switch fluorescence ratio: 1.29 ± 0.42

ATTTGGGGTT
switch fluorescence ratio: 0.997 ± 0.031

TTTGATTTGG
switch fluorescence ratio: 0.921 ± 0.022

TGAGGGCAGC
switch fluorescence ratio: 0.993 ± 0.026

CATGCCAAGC
switch fluorescence ratio: 1.15 ± 0.045

TACTGGCCGG
switch fluorescence ratio: 1.03 ± 0.029

CGTGTTTATA
switch fluorescence ratio: 0.99 ± 0.042

CTCACCACGA
switch fluorescence ratio: 1.09 ± 0.057

TGTCGCATTT
switch fluorescence ratio: 1.04 ± 0.012

GCAAACGTTA
switch fluorescence ratio: 1.07 ± 0.043

AACGTTTGTT
switch fluorescence ratio: 1.14 ± 0.23

TTATGCCGGG
switch fluorescence ratio: 0.971 ± 0.032

GGTACTATTT
switch fluorescence ratio: 1 ± 0.026

TCAGGGGAGG
switch fluorescence ratio: 1.03 ± 0.036

TGGGTTTGAG
switch fluorescence ratio: 0.99 ± 0.035

TTGTTTCCCG
switch fluorescence ratio: 1.013 ± 0.0086

TTTGTTTCAC
switch fluorescence ratio: 1.04 ± 0.043

AAAAGTCTGA
switch fluorescence ratio: 1.01 ± 0.041

CATTTTGTAG
switch fluorescence ratio: 1.039 ± 0.0043

AAGGGGCCTG
switch fluorescence ratio: 0.977 ± 0.018

TACATGTCGT
switch fluorescence ratio: 0.996 ± 0.018

TTCGTTGGGG
switch fluorescence ratio: 1.01 ± 0.041

TGAGGGGAGA
switch fluorescence ratio: 1.02 ± 0.028

TTTCTTTT
switch fluorescence ratio: 1.042 ± 0.0027

ATTCGTAGTG
switch fluorescence ratio: 1.004 ± 0.0016

GAATTGGATC
switch fluorescence ratio: 1.02 ± 0.019

CAAGGACTGG
switch fluorescence ratio: 0.997 ± 0.032

TCATATTATG
switch fluorescence ratio: 1.02 ± 0.034

CGTTAGAATA
switch fluorescence ratio: 1.017 ± 0.0078

TAGCCGGGGT
switch fluorescence ratio: 1.04 ± 0.054

TATGGAGGAT
switch fluorescence ratio: 1.09 ± 0.13

TATGGATAGG
switch fluorescence ratio: 0.996 ± 0.014

ATGATTGGTT
switch fluorescence ratio: 1 ± 0.022

TTGCTTTAAT
switch fluorescence ratio: 0.988 ± 0.019

GGTTGACGGG
switch fluorescence ratio: 0.985 ± 0.055

CTTTGCCTGG
switch fluorescence ratio: 0.98 ± 0.026

TTTTCACTTT
switch fluorescence ratio: 1.01 ± 0.046

AACGTAGGAC
switch fluorescence ratio: 1.1 ± 0.014

ATTATGTTTG
switch fluorescence ratio: 1.002 ± 0.0097

GTGGGGCGGA
switch fluorescence ratio: 1.01 ± 0.023

GGTGCCTGTT
switch fluorescence ratio: 1 ± 0.011

TTTTTGAGCA
switch fluorescence ratio: 1.05 ± 0.049

TTTGGAATGG
switch fluorescence ratio: 0.991 ± 0.054

AAATTAGGAT
switch fluorescence ratio: 0.997 ± 0.039

TAATGGATGG
switch fluorescence ratio: 0.966 ± 0.019

ACTGGTTTGG
switch fluorescence ratio: 1.04 ± 0.063

CATGGGGGAC
switch fluorescence ratio: 0.995 ± 0.031

GCTGTAGCGC
switch fluorescence ratio: 1.06 ± 0.035

CAAATCGTTG
switch fluorescence ratio: 0.9786 ± 0.0024

TTGTTGATTT
switch fluorescence ratio: 1.02 ± 0.034

TTACTATTTT
switch fluorescence ratio: 1.03 ± 0.023

AGCTGGAACA
switch fluorescence ratio: 1 ± 0.018

CGGAAGGGGA
switch fluorescence ratio: 1.05 ± 0.027

GTGAAGGGTT
switch fluorescence ratio: 0.993 ± 0.039

CACCCTGGTG
switch fluorescence ratio: 4.51 ± 0.57

GTAAGGTAAG
switch fluorescence ratio: 1.05 ± 0.015

TTAAGGGGTA
switch fluorescence ratio: 1 ± 0.019

GCTACTCGAA
switch fluorescence ratio: 1.06 ± 0.02

CTCTGTGTTT
switch fluorescence ratio: 0.9924 ± 0.00037

AAAGCTGGGA
switch fluorescence ratio: 1.01 ± 0.019

TTGTAGATGC
switch fluorescence ratio: 1.03 ± 0.071

TTGGGTCGGA
switch fluorescence ratio: 0.992 ± 0.029

TTACCCATGG
switch fluorescence ratio: 0.937 ± 0.064

TAAGGGGGAT
switch fluorescence ratio: 1.021 ± 0.0082

AAGTGGTATT
switch fluorescence ratio: 0.992 ± 0.029

ATTAAAAAAT
switch fluorescence ratio: 0.98 ± 0.089

TAAAAGTATA
switch fluorescence ratio: 0.985 ± 0.018

AAACCCGCCC
switch fluorescence ratio: 1.8128 ± 0.00028

GGCCCTGCAG
switch fluorescence ratio: 1.02 ± 0.042

GCTGGCTCGT
switch fluorescence ratio: 1.01 ± 0.013

TGAGCTTGGG
switch fluorescence ratio: 0.99 ± 0.022

CCGCGGGTTT
switch fluorescence ratio: 1.08 ± 0.075

ATTCGAGTGT
switch fluorescence ratio: 0.984 ± 0.018

TCATTAATAT
switch fluorescence ratio: 1.16 ± 0.22

ATGGAGTAAA
switch fluorescence ratio: 1.005 ± 0.0084

AGGGTAAAAG
switch fluorescence ratio: 1.03 ± 0.024

GCATTAAGAA
switch fluorescence ratio: 1.01 ± 0.018

TTTAGTACGC
switch fluorescence ratio: 1.05 ± 0.0076

ATTGAGGAGG
switch fluorescence ratio: 1.02 ± 0.023

ATATTGGATT
switch fluorescence ratio: 0.994 ± 0.018

TATCGGTCTT
switch fluorescence ratio: 0.9224 ± 0.0088

GCGATTTTAA
switch fluorescence ratio: 1.02 ± 0.048

TCGAGGGCAG
switch fluorescence ratio: 1.01 ± 0.029

TATGGTGGAG
switch fluorescence ratio: 0.981 ± 0.02

GGAATAGGAG
switch fluorescence ratio: 1.037 ± 0.0095

TTAATCAATG
switch fluorescence ratio: 0.998 ± 0.029

GGGATAAGGT
switch fluorescence ratio: 0.979 ± 0.03

GTCGTAGGGG
switch fluorescence ratio: 1.03 ± 0.018

GCAAAATTGG
switch fluorescence ratio: 1.04 ± 0.02

TGGTCGTTTT
switch fluorescence ratio: 1.01 ± 0.04

ATAGCTGGTT
switch fluorescence ratio: 0.991 ± 0.018

ACAAAGGGGG
switch fluorescence ratio: 0.92 ± 0.087

GGGGTCCTGA
switch fluorescence ratio: 1.01 ± 0.062

ACTTTGGGGG
switch fluorescence ratio: 1.01 ± 0.042

CGGTGCGGTG
switch fluorescence ratio: 0.981 ± 0.013

GGGAACGGCC
switch fluorescence ratio: 1.054 ± 0.0036

CCAGAGTGTT
switch fluorescence ratio: 1.33 ± 0.04

GTGTTATTGA
switch fluorescence ratio: 0.97161 ± 0.00039

TGACGCAAGG
switch fluorescence ratio: 2.8 ± 0.093

CTCTAACAGC
switch fluorescence ratio: 1.08 ± 0.022

TTCTAAGGTA
switch fluorescence ratio: 0.993 ± 0.021

CCAATATAGC
switch fluorescence ratio: 1.21 ± 0.016

TGCCTAAATA
switch fluorescence ratio: 1 ± 0.031

CTGTCGAGGC
switch fluorescence ratio: 0.977 ± 0.053

AGAGTTTGGG
switch fluorescence ratio: 0.988 ± 0.0099

AGTATAGGGC
switch fluorescence ratio: 0.989 ± 0.049

GATTTGGGTT
switch fluorescence ratio: 1.02 ± 0.041

AAGGGTCACC
switch fluorescence ratio: 0.999 ± 0.031

GAATCGGTAG
switch fluorescence ratio: 0.9783 ± 0.0013

TGATATGTGT
switch fluorescence ratio: 0.973 ± 0.053

TATAGGGGGG
switch fluorescence ratio: 1 ± 0.017

AATTTTTTTC
switch fluorescence ratio: 0.989 ± 0.015

TTTGGGTGTG
switch fluorescence ratio: 0.983 ± 0.016

AATGTTAATG
switch fluorescence ratio: 0.94 ± 0.019

GACATTTCTT
switch fluorescence ratio: 1.01 ± 0.011

CAAACGGGGG
switch fluorescence ratio: 0.983 ± 0.042

TGACGGGGGC
switch fluorescence ratio: 1.01 ± 0.014

TTGGGCGAGC
switch fluorescence ratio: 0.9736 ± 0.0045

TTGTCTCTTT
switch fluorescence ratio: 0.9932 ± 0.0062

TTCAACGACG
switch fluorescence ratio: 0.988 ± 0.082

TGAGAGGGGC
switch fluorescence ratio: 0.973 ± 0.058

CGGGAGTAGG
switch fluorescence ratio: 1.04 ± 0.041

TCTGCTTCCG
switch fluorescence ratio: 1.03 ± 0.02

AGAATATTTT
switch fluorescence ratio: 0.963 ± 0.011

ACAATATGGG
switch fluorescence ratio: 1.01 ± 0.079

TGCGGTGGGG
switch fluorescence ratio: 0.976 ± 0.013

TTTAGTCGCG
switch fluorescence ratio: 0.967 ± 0.039

AGAGGAGTCT
switch fluorescence ratio: 0.9706 ± 0.0019

TAAAGGGAGT
switch fluorescence ratio: 1 ± 0.024

TTTCCGAGGA
switch fluorescence ratio: 1.03 ± 0.069

AGGTGTGAGA
switch fluorescence ratio: 1.06 ± 0.044

CCCGTGCTTC
switch fluorescence ratio: 1.07 ± 0.063

TTTTTAGGC
switch fluorescence ratio: 1.01 ± 0.078

GTGAAAAAGA
switch fluorescence ratio: 1.005 ± 0.0075

TTATAAATTG
switch fluorescence ratio: 0.991 ± 0.03

TTTGGGACGG
switch fluorescence ratio: 0.999 ± 0.065

TTGACCGGAA
switch fluorescence ratio: 1.14 ± 0.038

GTTGACGGGT
switch fluorescence ratio: 0.971 ± 0.025

AGGTCAACCG
switch fluorescence ratio: 1.02 ± 0.02

TAATTGCTCG
switch fluorescence ratio: 1.062 ± 0.0041

GACATAAGTT
switch fluorescence ratio: 1 ± 0.044

TTGATATGGG
switch fluorescence ratio: 1.03 ± 0.11

GGACTAGGGA
switch fluorescence ratio: 1.01 ± 0.018

AAGCGTGTGG
switch fluorescence ratio: 1 ± 0.036

GCAATGATGT
switch fluorescence ratio: 1.06 ± 0.03

ATTTTCGGTG
switch fluorescence ratio: 1.01 ± 0.024

CGGGTACTAG
switch fluorescence ratio: 1.02 ± 0.044

CCGTTATAGT
switch fluorescence ratio: 1.795 ± 0.012

TGGATTAGAG
switch fluorescence ratio: 0.9672 ± 0.0022

CCTTTATGGC
switch fluorescence ratio: 0.947 ± 0.029

GAGCTAGGGG
switch fluorescence ratio: 1.03 ± 0.041

ACATCTTTTA
switch fluorescence ratio: 1.03 ± 0.038

AGGCCACCTT
switch fluorescence ratio: 1.04 ± 0.023

GCGGTGGGGG
switch fluorescence ratio: 1.03 ± 0.03

GGGTGGCCGT
switch fluorescence ratio: 0.961 ± 0.029

TGCAGGTTGG
switch fluorescence ratio: 1.03 ± 0.036

TCCCGTAAGT
switch fluorescence ratio: 1.05 ± 0.069

AAGTTGTGCT
switch fluorescence ratio: 0.972 ± 0.014

CAAGCTATCA
switch fluorescence ratio: 1.026 ± 0.002

ATTTAGACTT
switch fluorescence ratio: 1.039 ± 0.01

TTTTAATTTA
switch fluorescence ratio: 1.03 ± 0.043

AAGGAAAGAT
switch fluorescence ratio: 0.975 ± 0.04

TTGGAACGGG
switch fluorescence ratio: 1.02 ± 0.011

TAAATATCGT
switch fluorescence ratio: 1 ± 0.013

AGGCCCCCCA
switch fluorescence ratio: 1.328 ± 0.013

GTGCAAGGTA
switch fluorescence ratio: 1 ± 0.014

CTCCTTTTTC
switch fluorescence ratio: 0.976 ± 0.057

CCATCTCTGG
switch fluorescence ratio: 0.979 ± 0.022

CACGTTGTTT
switch fluorescence ratio: 0.9963 ± 0.0019

AGCAAGGGCG
switch fluorescence ratio: 1.06 ± 0.074

ATATCAGTTC
switch fluorescence ratio: 1.012 ± 0.0091

TAATTTTTTA
switch fluorescence ratio: 0.976 ± 0.03

CACTGCTCCT
switch fluorescence ratio: 1.09 ± 0.013

GGGGGGAGTG
switch fluorescence ratio: 0.975 ± 0.029

GGGTAGTTCA
switch fluorescence ratio: 1.009 ± 0.0069

TTACAGGCCT
switch fluorescence ratio: 1.05 ± 0.056

AAGGCGTAGT
switch fluorescence ratio: 0.979 ± 0.055

GCCTTACCTG
switch fluorescence ratio: 1.05 ± 0.012

GAACTCGGGG
switch fluorescence ratio: 1.019 ± 0.0051

ATCGGAAACT
switch fluorescence ratio: 1.03 ± 0.039

AACAGAAATA
switch fluorescence ratio: 1.01 ± 0.021

TCGTTGTTAG
switch fluorescence ratio: 0.992 ± 0.02

TTTGACAAAC
switch fluorescence ratio: 1.1 ± 0.073

TGGGGGCCCT
switch fluorescence ratio: 0.996 ± 0.026

TATGACGGGG
switch fluorescence ratio: 0.962 ± 0.014

AGTGGGGCT
switch fluorescence ratio: 0.9794 ± 0.0071

ACTCTACCGT
switch fluorescence ratio: 1.29 ± 0.057

GAAACGATGT
switch fluorescence ratio: 1.08 ± 0.05

ATTAATATGG
switch fluorescence ratio: 1.02 ± 0.015

AGACGAAAGA
switch fluorescence ratio: 1.02 ± 0.027

AGGTGTGTTG
switch fluorescence ratio: 0.984 ± 0.034

CGATGTTTTT
switch fluorescence ratio: 0.957 ± 0.029

TTGTTGGGAA
switch fluorescence ratio: 0.998 ± 0.032

ATTTGTGGAC
switch fluorescence ratio: 0.973 ± 0.037

CTCGCAGGGG
switch fluorescence ratio: 1.37 ± 0.2
